Laboratory results as given in US8409836B2, “Treatment of cellulosic material and enzymes useful therein” (Roal Oy, priority 2005, dated 2013).

B1: At Cel7A: cellobiohydrolase of Acremonium thermophilum ALKO4245, gene At cel7A, amino acid SEQ ID NO: 6, with CBD (protein)
chain: MYTKFAALAALVATVRGQAACSLTAETHPSLQWQKCTAPGSCTTVSGQVTIDANWRWLHQTNSSTNCYTGNEWDTSICSSDTDCATKCCLDGADYTGTYGVTASGNSLNLKFVTQGPYSKNIGSRMYLMESESKYQGFTLLGQEFTFDVDVSNLGCGLNGALYFVSMDLDGGVSKYTTNKAGAKYGTGYCDSQCPRDLKFINGQANIDGWQPSSNDANAGLGNHGSCCSEMDIWEANKVSAAYTPHPCTTIGQTMCTGDDCGGTYSSDRYAGICDPDGCDFNSYRMGDTSFYGPGKTVDTGSKFTVVTQFLTGSDGNLSEIKRFYVQNGKVIPNSESKIAGVSGNSITTDFCTAQKTAFGDTNVFEERGGLAQMGKALAEPMVLVLSVWDDHAVNMLWLDSTYPTDSTKPGAARGDCPITSGVPADVESQAPNSNVIYSNIRFGPINSTYTGTPSGGNPPGGGTTTTTTTTTSKPSGPTTTTNPSGPQQTHWGQCGGQGWTGPTVCQSPYTCKYSNDWYSQCL
B2: Ta Cel7A + Tr CBD: Thermoascus aurantiacus Cel7A fused to linker and CBD of Trichoderma reesei CBHI/Cel7A, SEQ ID NO: 28 (protein)
chain: MYQRALLFSFFLAAARAQQAGTVTAENHPSLTWQQCSSGGSCTTQNGKVVIDANWRWVHTTSGYTNCYTGNTWDTSICPDDVTCAQNCALDGADYSGTYGVTTSGNALRLNFVTQSSGKNIGSRLYLLQDDTTYQIFKLLGQEFTFDVDVSNLPCGLNGALYFVAMDADGGLSKYPGNKAGAKYGTGYCDSQCPRDLKFINGQANVEGWQPSANDPNAGVGNHGSCCAEMDVWEANSISTAVTPHPCDTPGQTMCQGDDCGGTYSSTRYAGTCDPDGCDFNPYRQGNHSFYGPGQIVDTSSKFTVVTQFITDDGTPSGTLTEIKRFYVQNGKVIPQSESTISGVTGNSITTEYCTAQKAAFGDNTGFFTHGGLQKISQALAQGMVLVMSLWDDHAANMLWLDSTYPTDADPDTPGVARGTCPTTSGVPADVESQYPNSYVIYSNIKVGPIGSTGNPSGGNPPGGNPPGTTTTRRPATTTGSSPGPTQSHYGQCGGIGYSGPTVCASGTTCQVLNPYYSQCL

Legend:
Format in all cases: biochemical
[1] = Hydrolysis with CBH enzyme mixtures, willow; details: additional enzymes EGII, bG, 48 h, 45° C., pH 5.0
Outline: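 Purified CBH/Cel7 (14.5 mg/g substrate dry matter) combined with T. reesei EGII/Cel5A (3.6 mg/g) or with EGI (1.8 mg/g), EGII (1.8 mg/g), xylanase pI 9 (5000 nkat/g) and AXE (250 nkat/g), plus β-glucosidase (176 nkat/g). Washed steam-pretreated willow, 10 mg/ml in 0.05 M sodium acetate, 45° C., 48 h. Reducing sugars by DNS (glucose standard).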

[2] = Specific activity on MUG3; details: purified cellobiohydrolases, 50° C., pH 5.0
Description: (§1) The specific activity of the preparations was determined using 4-methylumbelliferyl-β-D-lactoside (MUL), 4-methylumbelliferyl-β-D-cellobioside (MUG2) or 4-methylumbelliferyl-β-D-cellotrioside (MUG3) as substrate (van Tilbeurgh et al., 1988) in 0.05 M sodium citrate buffer pH 5 at 50° C. for 10 min. Endoglucanase and xylanase activities were determined by standard procedures (according to IUPAC, 1987) using carboxymethyl cellulose (CMC) and birch glucuronoxylan (Bailey et al., 1992) as substrates. Specific activity against Avicel was calculated on the basis of reducing sugars formed in a 24 h reaction at 50° C., pH 5.0, with 1% substrate and 0.25 μM enzyme dosage. The protein content of the purified enzyme preparations was measured according to Lowry et al., 1951. To characterize the end products of hydrolysis, soluble sugars liberated in 24 h hydrolysis experiment, as described above, were analysed by HPLC (Dionex). Purified cellobiohydrolase I (CBHI/Cel7A) of Trichoderma reesei was used as a reference.

Specific activity on MUL = details: purified cellobiohydrolases, 50° C., pH 5.0
Description: as §1

[3] = Hydrolysis with CBH enzyme mixtures, Avicel; details: additional enzymes EGII, bG; 48 h, 45° C., pH 5.0
Outline: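 Each CBH/Cel7 dosed at 14.5 mg/g substrate dry matter with T. reesei EGII/Cel5A (3.6 mg/g) or with EGI (1.8 mg/g), EGII (1.8 mg/g), xylanase (5000 nkat/g) and AXE (250 nkat/g), plus β-glucosidase (176 nkat/g d.w.). Avicel at 10 mg/ml in 0.05 M sodium acetate, stirred 48 h at 45° C, triplicates; reducing sugars by DNS versus glucose standard.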

[4] = Specific activity against Avicel; details: 50° C., pH 5.0, 24 h, 1% substrate, 0.25 μM enzyme
Description: as §1

[5] = Thermal stability of purified cellobiohydrolases; details: 0.1% BSA, pH 5.0, 60 min, MUL substrate
Description: Thermal stability of the purified cellobiohydrolases was determined at different temperatures. The reaction was performed in the presence of 0.1% BSA at pH 5.0 for 60 min using 4-methylumbelliferyl-β-D-lactoside as substrate. C. thermophilum ALKO4265 CBH/Cel7A and A. thermophilum ALKO4245 CBH/Cel7A were stable up to 65° and 60° C., respectively. The T. reesei reference enzyme (CBHI/Cel7A) retained 100% of activity up to 55° C.

[6] = Thermal stability of recombinant Cel7 enzymes; details: MUL activity, optimum pH, reaction time 1 h
Description: (§2) The recombinant CBH/Cel7 enzyme preparations were characterized in terms of pH optimum and thermal stability. The pH optimum of the recombinant CBH/Cel7 proteins from Thermoascus aurantiacus, Chaetomium thermophilum, and Acremonium thermophilum were determined in the universal McIlvaine buffer within a pH range of 3.0-8.0 using 4-methylumbelliferyl-β-D-lactoside (MUL) as a substrate (FIG. 3A). The pH optimum for Ct Cel7A and At Cel7A enzymes is at 5.5, above which the activity starts to gradually drop. The pH optimum of the recombinant crude Ta Cel7A is at 5.0 (FIG. 3A). Thermal stability of the recombinant Cel7 enzymes was determined by measuring the MUL activity in universal McIlvaine buffer at the optimum pH with reaction time of 1 h.

[7] = Hydrolysis with CBH enzyme mixtures, spruce; details: additional enzymes EGII, bG; 48 h, 45° C., pH 5.0
Outline: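 Washed SO2-steam pre-treated spruce (10 mg dry matter/ml, 0.05 M sodium acetate) hydrolysed 48 h at 45 °C with each CBH/Cel7 (14.5 mg/g) plus T. reesei EGII (3.6 mg/g), or plus EGI, EGII, xylanase and AXE, all with added β-glucosidase. Reducing sugars measured by DNS against glucose.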

[8] = Xylanase activity on birch xylan; details: purified cellobiohydrolases, 50° C., pH 5.0
Description: as §1
Acremonium thermophilum ALKO4245 was grown as described in Example 1. The culture supernatant was incubated at 70° C. for 24 hours after which, it was concentrated by ultrafiltration. The pure xylanase was obtained by sequential purification with hydrophobic interaction and cation exchange chromatography followed by gel filtration. The xylanase activity was determined using birch xylan as substrate (procedure of IUPAC 1987). Protein was assayed by BioRad Protein Assay Kit (Bio-Rad Laboratories) using bovine serum albumin as standard.
Thermoascus aurantiacus ALKO4242 was grown as described in Example 1. The pure xylanase was obtained by sequential purification with hydrophobic interaction, anion, and cation exchange chromatography followed by gel filtration. The xylanase activity was determined using birch xylan as substrate (procedure of IUPAC 1987). Protein was assayed by BioRad Protein Assay Kit (Bio-Rad Laboratories) using bovine serum albumin as standard.

[9] = Endoglucanase activity on carboxymethyl cellulose; details: purified cellobiohydrolases, 50° C., pH 5.0
Description: as §1
(§3) Acremonium thermophilum ALKO4245 was grown as described in Example 1. The culture supernatant was incubated at 70° C. for 24 hours after which it was concentrated by ultrafiltration. The pure endoglucanase was obtained by sequential purification with hydrophobic interaction and cation exchange chromatography followed by gel filtration. The endoglucanase activity of the fractions collected during purification was determined using carboxymethyl cellulose (CMC) as substrate (procedure of IUPAC 1987). Protein content was measured by BioRad Assay Kit (Bio-Rad Laboratories) using bovine serum albumine as standard.
as §3, with “Thermoascus aurantiacus ALKO4242 was” for “Acremonium thermophilum ALKO4245 was”, “1.” for “1. The culture supernatant was incubated at 70° C. for 24 hours after which it was concentrated by ultrafiltration.”, “and anion” for “and cation”

[10] = Specific activity on MUG2; details: purified cellobiohydrolases, 50° C., pH 5.0
Description: as §1

[11] = Hydrolysis with CBH enzyme mixtures, corn stover; details: additional enzymes EGII, bG, 48 h, 45° C., pH 5.0
Outline: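 Purified recombinant CBH/Cel7 (14.5 mg/g substrate dry matter) combined with T. reesei EGII/Cel5A or an EGI/EGII/xylanase/AXE mixture, plus β-glucosidase (176 nkat/g). Washed wet-oxidized corn stover, 10 mg/ml in 0.05 M sodium acetate, stirred 48 h at 45° C, triplicate. Reducing sugars by DNS against glucose, versus inactivated-enzyme references.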

[12] = pH optimum of recombinant CBH/Cel7 proteins; details: McIlvaine buffer, pH range 3.0-8.0, MUL, 50° C., 10 min
Description: as §2

[13] = Crystalline cellulose (Avicel) hydrolysis by recombinant cellobiohydrolases; details: 70° C., pH 5.0, enzyme 1.4 μM
Description: The purified recombinant cellobiohydrolases Ct Cel7A, Ta Cel7A, Ta Cel7A+Tr CBD, Ta Cel7A+Ct CBD, At Cel7A as well as the core version of Ct Cel7A (see below) were tested in equimolar amounts in crystalline cellulose hydrolysis at two temperatures, 45° C. and 70° C.; the purified T. reesei Tr Cel7A and its core version (see below) were used as comparison. The crystalline cellulose (Ph 101, Avicel; Fluka, Bucsh, Switzerland) hydrolysis assays were performed in 1.5 ml tube scale 50 mM sodium acetate, pH 5.0. Avicel was shaken at 45° C. or at 70° C., with the enzyme solution (1.4 μM), and the final volume of the reaction mixture was 325 μl. The hydrolysis was followed up to 24 hours taking samples at six different time points and stopping the reaction by adding 163 μl of stop reagent containing 9 vol of 94% ethanol and 1 vol of 1 M glycine (pH 11). […] The formation of soluble reducing sugars in the supernatant was determined by para-hydroxybenzoicacidhydrazide (PAHBAH) method (Lever, 1972) using a cellobiose standard curve (50 to 1600 μM cellobiose). […] The absorbance of the samples at 405 nm was measured.
The core versions of the cellobiohydrolases harboring a CBD in their native form were obtained as follows: Ct Cel7A and Tr Cel7A were exposed to proteolytic digestion to remove the cellulose-binding domain. […] The product was analysed in SDS-PAGE.

Row | Molecule | Hydrolysis products as reducing sugars, WILLOW ([1]; EGI, XYL, AXE) [mg/mL] | Hydrolysis products as reducing sugars, WILLOW [1] [mg/mL] | Specific activity, MUG3 [2] [nkat/mg] | Specific activity, MUL (Specific activity on MUL) [nkat/mg] | Hydrolysis products as reducing sugars, Avicel [3] [mg/mL] | Specific activity, Avicel [4] [nkat/mg] | Thermal stability: temperature up to which stable / 100% of activity retained [5] [°C] | Thermal stability at the higher temperatures (≧65° C.) [6] | Hydrolysis products as reducing sugars, SPRUCE [7] [mg/mL] | Specific activity, Xylan [8] [nkat/mg] | Specific activity, CMC [9] [nkat/mg] | Specific activity, MUG2 [10] [nkat/mg] | Hydrolysis products as reducing sugars, WOCS ([11]; EGI, XYL, AXE) [mg/mL] | Hydrolysis products as reducing sugars, WOCS [11] [mg/mL] | pH optimum [12] | Avicel hydrolysis as compared to T. reesei Cel7A [13]
1 | B1 | 5.4 | 3.3 | 1.3 | 21.5 | 5.3 | 1.8 | ≤ 60 | clearly less stable | 3.3 | 11.3 | 26.2 | 9.2 | 6.4 | 4.5 | 5.5 | –
2 | B2 | 5.9 | 4.0 | – | – | 5.8 | – | – | – | 4.0 | – | – | – | 7.2 | 4.4 | – | superior
